# “And” between values parts separate entries of the source, which are not always exact repeats. Identical values can stand only once. Ends that are not written are not given here.
# Tests used:
# [1] = Nasal absorption, clinical effect and irritation (general statement); type: in vivo; details: powder in specific carrier, nasal route
# [2] = test system: blood sugar; test: Average fall of the blood sugar after nasal or subcutaneous insulin (Test Example 1); type: in vivo, male New Zealand rabbits
# Method: A nasally administrable composition in powdery form was prepared by formulating insulin as a physiologically active peptide at the rate of 2.4 mg/rabbit (5 insulin unit (IU)/rabbit) with hydroxyapatite as a carrier having a mean particle size ranging from 40 to 45 μm.
# The resulting composition was nasally administered once to six male New Zealand rabbits.
# The average fall of the blood sugar was measured and represented in percentage (%) at 0, 15, 30, 60, 120 and 180 minutes after administration.
# For comparison, 2 (IU)/rabbit of insulin was administered subcutaneously to six male New Zealand rabbits and the average fall of the blood sugar was measured and represented in percentage (%) at 0, 60, 120, 240 and 360 minutes after administration.
# [3] = Somatropin blood concentration, nasal powder with hydroxyapatite or calcium carbonate (Test Example 10); type: in vivo, healthy male adults (human); details: for Concentration of somatropin in the blood: nasal 6.825 somatropin unit/25 mg
# Method: The blood (2.5 ml) was collected from each of the tested adults prior to administration and then at 5, 10, 15, 20, 30, 45, 60, 90, 120 and 150 minutes after administration.
# [4] = Somatropin blood concentration, nasal powder with calcium lactate or calcium carbonate (Test Example 11); type: in vivo, healthy male adults (human)
# Method: The blood (2.5 ml) was collected from each of the tested adults prior to administration and then at 5, 10, 15, 20, 30, 45, 60, 90, 120, 150 and 180 minutes after administration.
# [5] = relative, among calcitonins; cited from earlier work
substance,measurement,setting,value
insulin: peptide hormone formulated with hydroxyapatite for nasal administration; also given subcutaneously as comparison,absorption into the body,[1],well absorbed into the body
same,clinical effects,[1],high clinical effects
same,"Blood sugar, percent of initial value","[2]; S.C. comparison, 2 IU/rabbit, 0 min",100%
same,"Blood sugar, percent of initial value","[2]; S.C. comparison, 2 IU/rabbit, 60 min",57%
same,"Blood sugar, percent of initial value","[2]; S.C. comparison, 2 IU/rabbit, 120 min",56%
same,"Blood sugar, percent of initial value","[2]; S.C. comparison, 2 IU/rabbit, 240 min",84%
same,"Blood sugar, percent of initial value","[2]; S.C. comparison, 2 IU/rabbit, 360 min",94%
same,absorption through nasal route,"[2]; hydroxyapatite, rabbits",high extent of absorption
same,"Blood sugar, percent of initial value","[2]; nasal, 5 IU/rabbit, hydroxyapatite, 0 min",100%
same,"Blood sugar, percent of initial value","[2]; nasal, 5 IU/rabbit, hydroxyapatite, 15 min",105%
same,"Blood sugar, percent of initial value","[2]; nasal, 5 IU/rabbit, hydroxyapatite, 30 min",66%
same,"Blood sugar, percent of initial value","[2]; nasal, 5 IU/rabbit, hydroxyapatite, 60 min",67%
same,"Blood sugar, percent of initial value","[2]; nasal, 5 IU/rabbit, hydroxyapatite, 120 min",84%
same,"Blood sugar, percent of initial value","[2]; nasal, 5 IU/rabbit, hydroxyapatite, 180 min",96%
"somatropin: somatropin (growth hormone; recombinant type--NOVO), 150 mg per composition (1,000 mg) with carrier",Concentration of somatropin in the blood,"[3]; 0 min (predose), calcium carbonate, individual cases No. 27-28 in order",0.28 ng/mL and 0.24 ng/mL
same,Concentration of somatropin in the blood,"[3]; 0 min (predose), hydroxyapatite, individual cases No. 25-26 in order",0.49 ng/mL and 0.76 ng/mL
same,Concentration of somatropin in the blood,"[3]; 5 min, calcium carbonate, individual cases No. 27-28 in order",0.96 ng/mL and 0.55 ng/mL
same,Concentration of somatropin in the blood,"[3]; 5 min, hydroxyapatite, individual cases No. 25-26 in order",2.44 ng/mL and 3.18 ng/mL
same,Concentration of somatropin in the blood,"[3]; 10 min, calcium carbonate, individual cases No. 27-28 in order",2.55 ng/mL and 1.08 ng/mL
same,Concentration of somatropin in the blood,"[3]; 10 min, hydroxyapatite, individual cases No. 25-26 in order",3.59 ng/mL and 2.27 ng/mL
same,Concentration of somatropin in the blood,"[3]; 15 min, calcium carbonate, individual cases No. 27-28 in order",2.84 ng/mL and 1.41 ng/mL
same,Concentration of somatropin in the blood,"[3]; 15 min, hydroxyapatite, individual cases No. 25-26 in order",4.66 ng/mL and 2.00 ng/mL
same,Concentration of somatropin in the blood,"[3]; 20 min, calcium carbonate, individual cases No. 27-28 in order",3.02 ng/mL and 1.78 ng/mL
same,Concentration of somatropin in the blood,"[3]; 20 min, hydroxyapatite, individual cases No. 25-26 in order",6.25 ng/mL and 1.86 ng/mL
same,Concentration of somatropin in the blood,"[3]; 30 min, calcium carbonate, individual cases No. 27-28 in order",4.11 ng/mL and 1.91 ng/mL
same,Concentration of somatropin in the blood,"[3]; 30 min, hydroxyapatite, individual cases No. 25-26 in order",5.21 ng/mL and 1.67 ng/mL
same,Concentration of somatropin in the blood,"[3]; 45 min, calcium carbonate, individual cases No. 27-28 in order",8.93 ng/mL and 1.99 ng/mL
same,Concentration of somatropin in the blood,"[3]; 45 min, hydroxyapatite, individual cases No. 25-26 in order",4.16 ng/mL and 1.80 ng/mL
same,Concentration of somatropin in the blood,"[3]; 60 min, calcium carbonate, individual cases No. 27-28 in order",13.10 ng/mL and 2.11 ng/mL
same,Concentration of somatropin in the blood,"[3]; 60 min, hydroxyapatite, individual cases No. 25-26 in order",2.93 ng/mL and 1.61 ng/mL
same,Concentration of somatropin in the blood,"[3]; 90 min, calcium carbonate, individual cases No. 27-28 in order",14.60 ng/mL and 1.27 ng/mL
same,Concentration of somatropin in the blood,"[3]; 90 min, hydroxyapatite, individual cases No. 25-26 in order",1.45 ng/mL and 1.41 ng/mL
same,Concentration of somatropin in the blood,"[3]; 120 min, calcium carbonate, individual cases No. 27-28 in order",5.65 ng/mL and 0.92 ng/mL
same,Concentration of somatropin in the blood,"[3]; 120 min, hydroxyapatite, individual cases No. 25-26 in order",0.76 ng/mL and 1.16 ng/mL
same,Concentration of somatropin in the blood,"[3]; 150 min, calcium carbonate, individual cases No. 27-28 in order",2.97 ng/mL and 0.80 ng/mL
same,Concentration of somatropin in the blood,"[3]; 150 min, hydroxyapatite, individual cases No. 25-26 in order",0.91 ng/mL
same,absorption through nasal route,[3]; hydroxyapatite and calcium carbonate,high extent of absorption
same,absorption into the body,[1],well absorbed into the body
same,clinical effects,[1],high clinical effects
same,Concentration of somatropin in the blood,"[4]; 0 min (predose), nasal 6.825 somatropin unit/25 mg, calcium carbonate, individual cases No. 31-32 in order",0.15 ng/mL and 0.69 ng/mL
same,Concentration of somatropin in the blood,"[4]; 0 min (predose), nasal 6,825 (so in the source) somatropin unit/25 mg, calcium lactate, individual cases No. 29-30 in order",1.15 ng/mL and 0.16 ng/mL
same,Concentration of somatropin in the blood,"[4]; 5 min, nasal 6.825 somatropin unit/25 mg, calcium carbonate, individual cases No. 31-32 in order",0.46 ng/mL and 6.15 ng/mL
same,Concentration of somatropin in the blood,"[4]; 5 min, nasal, 25 mg, calcium lactate, individual cases No. 29-30 in order",2.56 ng/mL and 0.30 ng/mL
same,Concentration of somatropin in the blood,"[4]; 10 min, nasal 6.825 somatropin unit/25 mg, calcium carbonate, individual cases No. 31-32 in order",0.81 ng/mL and 2.81 ng/mL
same,Concentration of somatropin in the blood,"[4]; 10 min, nasal, 25 mg, calcium lactate, individual cases No. 29-30 in order",4.29 ng/mL and 0.37 ng/mL
same,Concentration of somatropin in the blood,"[4]; 15 min, nasal 6.825 somatropin unit/25 mg, calcium carbonate, individual cases No. 31-32 in order",1.13 ng/mL and 2.49 ng/mL
same,Concentration of somatropin in the blood,"[4]; 15 min, nasal, 25 mg, calcium lactate, individual cases No. 29-30 in order",5.11 ng/mL and 0.65 ng/mL
same,Concentration of somatropin in the blood,"[4]; 20 min, nasal 6.825 somatropin unit/25 mg, calcium carbonate, individual cases No. 31-32 in order",1.30 ng/mL and 2.20 ng/mL
same,Concentration of somatropin in the blood,"[4]; 20 min, nasal, 25 mg, calcium lactate, individual cases No. 29-30 in order",5.87 ng/mL and 0.72 ng/mL
same,Concentration of somatropin in the blood,"[4]; 30 min, nasal 6.825 somatropin unit/25 mg, calcium carbonate, individual cases No. 31-32 in order",1.64 ng/mL and 2.12 ng/mL
same,Concentration of somatropin in the blood,"[4]; 30 min, nasal, 25 mg, calcium lactate, individual cases No. 29-30 in order",7.70 ng/mL and 0.79 ng/mL
same,Concentration of somatropin in the blood,"[4]; 45 min, nasal 6.825 somatropin unit/25 mg, calcium carbonate, individual cases No. 31-32 in order",1.79 ng/mL and 1.67 ng/mL
same,Concentration of somatropin in the blood,"[4]; 45 min, nasal, 25 mg, calcium lactate, individual cases No. 29-30 in order",5.99 ng/mL and 0.71 ng/mL
same,Concentration of somatropin in the blood,"[4]; 60 min, nasal 6.825 somatropin unit/25 mg, calcium carbonate, individual cases No. 31-32 in order",1.47 ng/mL and 1.36 ng/mL
same,Concentration of somatropin in the blood,"[4]; 60 min, nasal, 25 mg, calcium lactate, individual cases No. 29-30 in order",6.16 ng/mL and 0.62 ng/mL
same,Concentration of somatropin in the blood,"[4]; 90 min, nasal 6.825 somatropin unit/25 mg, calcium carbonate, individual cases No. 31-32 in order",1.18 ng/mL and 1.02 ng/mL
same,Concentration of somatropin in the blood,"[4]; 90 min, nasal, 25 mg, calcium lactate, individual cases No. 29-30 in order",3.39 ng/mL and 0.58 ng/mL
same,Concentration of somatropin in the blood,"[4]; 120 min, nasal 6.825 somatropin unit/25 mg, calcium carbonate, individual cases No. 31-32 in order",0.79 ng/mL and 0.48 ng/mL
same,Concentration of somatropin in the blood,"[4]; 120 min, nasal, 25 mg, calcium lactate, individual cases No. 29-30 in order",1.70 ng/mL and 0.32 ng/mL
same,Concentration of somatropin in the blood,"[4]; 150 min, nasal 6.825 somatropin unit/25 mg, calcium carbonate, individual cases No. 31-32 in order",0.59 ng/mL and 0.37 ng/mL
same,Concentration of somatropin in the blood,"[4]; 150 min, nasal, 25 mg, calcium lactate, individual cases No. 29-30 in order",0.24 ng/mL
same,Concentration of somatropin in the blood,"[4]; 180 min, nasal 6.825 somatropin unit/25 mg, calcium carbonate, individual cases No. 31-32 in order",1.67 ng/mL and 0.48 ng/mL
same,Concentration of somatropin in the blood,"[4]; 180 min, nasal, 25 mg, calcium lactate, individual cases No. 29-30 in order",0.45 ng/mL and 1.02 ng/mL
same,absorption through nasal route,[4]; calcium lactate and calcium carbonate,high extent of absorption
"eel calcitonin: naturally occurring calcitonin extracted from the origin and commercially available (CSNLSTCVLGKLSQELHKLQTYPRTDVGAGTP; ends and bridges not checked; cysteine pairing not given here; UniProt P01262 1-32, looked up)",stability,[5],higher in stability than human calcitonin
human calcitonin: naturally occurring calcitonin extracted from the origin and commercially available,stability,[5],higher than salmon calcitonin

# Reference: US5603943A, “Nasally administrable compositions” (Dott Research Laboratory, priority 1994, dated 1997)
